Source: the RNAGym collection of RNA variant scans (doi:10.7554/elife.80360)

B1: Hairpin Ribozyme (parent)
chain: GUCCUCUUUCACGUGCGCGUGAAAGAGAGAAGUGAACCAGAGAAACACACGUUGUGGUAUAUUACCUGGUA

Variants of: B1
Assay: self-cleavage, relative activity (ratio to wild type); higher = more cleavage; co-transcriptional

**Q.** For GUCCUCUUUCACGUGCGCGUGAAAGAGAGAAGUGAACCAGAGAAACACACGUUGUGGUAGAUUUCCUGGUA, which self-cleavage is on record?
**A.** 0.202

**Q.** For GUCCUCUUUCACGUGCGCGUGAAAGAGAGAAGUGAACCAGAGAAACACACGUUGUGGUAUAAUACCAGGUA, which self-cleavage is on record?
**A.** 0.134

**Q.** With GUCCUCUUUCACGUGCGCGUGAAAGAGAGAAGUGAACCAGAGAAACACACGUUGUGGUAUAAUACCCGGUA as the variant, how does the self-cleavage read?
**A.** 0.134

**Q.** With GUCCUCUUUCACGUGCGCGUGAAAGAGAGAAGUGAACCAGAGAAACACACGUUGUGGUAUGUGACCUGGUA as the variant, how does the self-cleavage read?
**A.** 0.0586

**Q.** With GUCCUCUUUCACGUGCGCGUGAAAGAGAGAAGUGAACCAGAGAAACACACGUUGUGGUAUGUCACCUGGUA as the variant, how does the self-cleavage read?
**A.** 0.253

**Q.** With GUCCUCUUUCACGUGCGCGUGAAAGAGAGAAGUGAACCAGAGAAACACACGUUGUGGUAUGUAACCUGGUA as the variant, how does the self-cleavage read?
**A.** 0.144

**Q.** For GUCCUCUUUCACGUGCGCGUGAAAGAGAGAAGUGAACCAGAGAAACACACGUUGUGGUAGAUUACCUAGUA, which self-cleavage is on record?
**A.** 0.201

**Q.** For GUCCUCUUUCACGUGCGCGUGAAAGAGAGAAGUGAACCAGAGAAACACACGUUGUGGUAUAAUAGCUGGUA, which self-cleavage is on record?
**A.** 0.101

**Q.** With GUCCUCUUUCACGUGCGCGUGAAAGAGAGAAGUGAACCAGAGAAACACACGUUGUGGUAUUUUACCUGGUC as the variant, how does the self-cleavage read?
**A.** 0.468

**Q.** With GUCCUCUUUCACGUGCGCGUGAAAGAGAGAAGUGAACCAGAGAAACACACGUUGUGGUAUUUUACCUGGUG as the variant, how does the self-cleavage read?
**A.** 0.275

**Q.** Which self-cleavage does the source give for GUCCUCUUUCACGUGCGCGUGAAAGAGAGAAGUGAACCAGAGAAACACACGUUGUGGUAUCGUACCUGGUA here?
**A.** 0.102

**Q.** Which self-cleavage does the source give for GUCCUCUUUCACGUGCGCGUGAAAGAGAGAAGUGAACCAGAGAAACACACGUUGUGGUAUCAUACCUGGUA here?
**A.** 0.143

**Q.** For GUCCUCUUUCACGUGCGCGUGAAAGAGAGAAGUGAACCAGAGAAACACACGUUGUGGUAUGUUACUUGGUA, which self-cleavage is on record?
**A.** 0.277

**Q.** Which self-cleavage does the source give for GUCCUCUUUCACGUGCGCGUGAAAGAGAGAAGUGAACCAGAGAAACACACGUUGUGGUAUCUUACCUGGAA here?
**A.** 0.204

**Q.** With GUCCUCUUUCACGUGCGCGUGAAAGAGAGAAGUGAACCAGAGAAACACACGUUGUGGUAUCUUACCUGGGA as the variant, how does the self-cleavage read?
**A.** 0.146

**Q.** For GUCCUCUUUCACGUGCGCGUGAAAGAGAGAAGUGAACCAGAGAAACACACGUUGUGGUAGAUUACCUGGUC, which self-cleavage is on record?
**A.** 1.01

**Q.** With GUCCUCUUUCACGUGCGCGUGAAAGAGAGAAGUGAACCAGAGAAACACACGUUGUGGUAGAUUACCUGGUG as the variant, how does the self-cleavage read?
**A.** 0.672

**Q.** For GUCCUCUUUCACGUGCGCGUGAAAGAGAGAAGUGAACCAGAGAAACACACGUUGUGGUAUGUUACCUGGUU, which self-cleavage is on record?
**A.** 0.393

**Q.** For GUCCUCUUUCACGUGCGCGUGAAAGAGAGAAGUGAACCAGAGAAACACACGUUGUGGUAUAAUACCUGGUG, which self-cleavage is on record?
**A.** 0.211

**Q.** Which self-cleavage does the source give for GUCCUCUUUCACGUGCGCGUGAAAGAGAGAAGUGAACCAGAGAAACACACGUUGUGGUAGGUUACCUGGUA here?
**A.** 0.205

**Q.** With GUCCUCUUUCACGUGCGCGUGAAAGAGAGAAGUGAACCAGAGAAACACACGUUGUGGUAGAUUACCUGGCA as the variant, how does the self-cleavage read?
**A.** 0.372

**Q.** With GUCCUCUUUCACGUGCGCGUGAAAGAGAGAAGUGAACCAGAGAAACACACGUUGUGGUAGAUUACCUGGAA as the variant, how does the self-cleavage read?
**A.** 0.572

**Q.** Which self-cleavage does the source give for GUCCUCUUUCACGUGCGCGUGAAAGAGAGAAGUGAACCAGAGAAACACACGUUGUGGUAUGUUGCCUGGUA here?
**A.** 0.141

**Q.** With GUCCUCUUUCACGUGCGCGUGAAAGAGAGAAGUGAACCAGAGAAACACACGUUGUGGUAGAUUACCUGUUA as the variant, how does the self-cleavage read?
**A.** 0.101

**Q.** For GUCCUCUUUCACGUGCGCGUGAAAGAGAGAAGUGAACCAGAGAAACACACGUUGUGGUAUUUUACCUUGUA, which self-cleavage is on record?
**A.** 0.153

**Q.** For GUCCUCUUUCACGUGCGCGUGAAAGAGAGAAGUGAACCAGAGAAACACACGUUGUGGUAUGUUACCGGGUA, which self-cleavage is on record?
**A.** 0.157

**Q.** For GUCCUCUUUCACGUGCGCGUGAAAGAGAGAAGUGAACCAGAGAAACACACGUUGUGGUAUGUUACCCGGUA, which self-cleavage is on record?
**A.** 0.113

**Q.** For GUCCUCUUUCACGUGCGCGUGAAAGAGAGAAGUGAACCAGAGAAACACACGUUGUGGUAUACUGCCUGGUA, which self-cleavage is on record?
**A.** 0.18

**Q.** Which self-cleavage does the source give for GUCCUCUUUCACGUGCGCGUGAAAGAGAGAAGUGAACCAGAGAAACACACGUUGUGGUAUGUUAUCUGGUA here?
**A.** 0.192

**Q.** Which self-cleavage does the source give for GUCCUCUUUCACGUGCGCGUGAAAGAGAGAAGUGAACCAGAGAAACACACGUUGUGGUAUUUUGCCUGGUA here?
**A.** 0.121

**Q.** Which self-cleavage does the source give for GUCCUCUUUCACGUGCGCGUGAAAGAGAGAAGUGAACCAGAGAAACACACGUUGUGGUAUUUUCCCUGGUA here?
**A.** 0.197

**Q.** With GUCCUCUUUCACGUGCGCGUGAAAGAGAGAAGUGAACCAGAGAAACACACGUUGUGGUAUACUACCUGUUA as the variant, how does the self-cleavage read?
**A.** 0.169

**Q.** Which self-cleavage does the source give for GUCCUCUUUCACGUGCGCGUGAAAGAGAGAAGUGAACCAGAGAAACACACGUUGUGGUAUUUUAACUGGUA here?
**A.** 0.107

**Q.** With GUCCUCUUUCACGUGCGCGUGAAAGAGAGAAGUGAACCAGAGAAACACACGUUGUGGUAUCUUACAUGGUA as the variant, how does the self-cleavage read?
**A.** 0.0988

**Q.** With GUCCUCUUUCACGUGCGCGUGAAAGAGAGAAGUGAACCAGAGAAACACACGUUGUGGUAUCUUACGUGGUA as the variant, how does the self-cleavage read?
**A.** 0.101

**Q.** For GUCCUCUUUCACGUGCGCGUGAAAGAGAGAAGUGAACCAGAGAAACACACGUUGUGGUAUCUUACUUGGUA, which self-cleavage is on record?
**A.** 0.145

**Q.** Which self-cleavage does the source give for GUCCUCUUUCACGUGCGCGUGAAAGAGAGAAGUGAACCAGAGAAACACACGUUGUGGUAUCUUGCCUGGUA here?
**A.** 0.185

**Q.** With GUCCUCUUUCACGUGCGCGUGAAAGAGAGAAGUGAACCAGAGAAACACACGUUGUGGUAUCUUUCCUGGUA as the variant, how does the self-cleavage read?
**A.** 0.179
